Target: HA-PEG10 gag-pol (Homo sapiens) (UniProt Q86TG7)
Assay: co-sedimentation; crude VLP preparation: conditioned medium of co-transfected HEK293 cells, cleared at 2700 x g, ultracentrifuged at 134,000 x g for 4 hr at 4°C over a 30% sucrose cushion; pellet analysed by western blot

Chain of UniProt Q86TG7 (Q86TG7 whole entry): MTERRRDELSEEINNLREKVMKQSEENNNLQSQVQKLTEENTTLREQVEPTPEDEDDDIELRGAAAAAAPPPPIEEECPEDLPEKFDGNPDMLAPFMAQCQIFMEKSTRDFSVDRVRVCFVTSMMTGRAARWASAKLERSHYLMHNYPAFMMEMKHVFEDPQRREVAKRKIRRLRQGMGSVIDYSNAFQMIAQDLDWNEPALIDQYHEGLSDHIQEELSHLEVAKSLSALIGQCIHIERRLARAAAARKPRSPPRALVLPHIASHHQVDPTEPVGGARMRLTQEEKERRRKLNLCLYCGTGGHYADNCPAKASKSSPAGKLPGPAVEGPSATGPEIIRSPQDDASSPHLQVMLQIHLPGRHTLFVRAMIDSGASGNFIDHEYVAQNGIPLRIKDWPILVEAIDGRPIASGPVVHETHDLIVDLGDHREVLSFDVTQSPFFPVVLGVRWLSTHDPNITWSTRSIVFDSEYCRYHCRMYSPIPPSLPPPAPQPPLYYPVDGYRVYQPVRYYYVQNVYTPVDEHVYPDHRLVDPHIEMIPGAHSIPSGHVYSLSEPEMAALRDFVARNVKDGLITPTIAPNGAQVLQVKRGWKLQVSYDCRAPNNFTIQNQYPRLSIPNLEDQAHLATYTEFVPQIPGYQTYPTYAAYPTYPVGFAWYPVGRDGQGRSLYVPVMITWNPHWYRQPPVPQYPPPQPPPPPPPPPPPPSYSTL

abundance of RTL8 relative to HA-PEG10 in the VLP fraction: 5%
Substance: HA-HsRTL8c (from UniProt A6ZKI3 1-113) (natural protein)
